The results in this text go back to publication PMC10583499.

The test deals with human NRP2 (v2, NM_003872.3), untagged, stably overexpressed on Expi293F cells (Expi293F-hNRP2) (human) (UniProt O60462). Kind of test: flow cytometry on cells. (A flow cytometer gives signals particle by particle.)

As usually defined, the EC50 is the concentration that produces a half-maximal response. “human Sema3F (amino acids 19 to 779), N-terminal 6xHis-Myc tag, R583A R586A (from UniProt Q13275 19-779) (ligand)”: the EC50 amounted to 5.7 nM.
